The experiment has as its target CD40 in the antibody expressing cells (rabbit plasmablasts from peripheral blood) (rabbit). Briefly: cell-based or functional assay.

Regarding “Fc-CD40-L (human IgG1-Fc fragment linked to the 18 kDa rabbit CD40-L fragment) (Fc fusion)”, the B cell growth after 7 days, batch sort in BM1, Fc-CD40-L against LZ-CD40-L (18 kDa) (% higher than LZ-CD40-L (18 kDa)) came out at 32; the B cell growth after 7 days, batch sort in BM1, cytokines + CD40-L construct 7.5 ug/ml, against the reference EL4-B5 + TSN (% more than reference) is 43; the cell growth after 7 days, batch sort in BM1, cytokines + Fc-CD40-L 7.5 ug/ml (#4) against the reference TSN + EL4-B5 (% higher than reference) is 23; the cell growth after 7 days, batch sort in BM2, 2.5 ug/ml Fc-CD40-L (#12) against 7.5 ug/ml (#10) stood at 1.4 times lower. Moreover, the cell growth after 7 days, batch sort in BM2, 5.0 ug/ml Fc-CD40-L (#11) against 7.5 ug/ml (#10) came out at 1.1 times lower; the cell growth after 7 days, batch sort in BM2, cytokines + 2.5 ug/ml Fc-CD40-L (#12) against the reference #9 (% lower than reference) came out at 27; the cell growth after 7 days, batch sort in BM2, cytokines + 5.0 ug/ml Fc-CD40-L (#11) against the reference #9 (% lower than reference) was determined as 5; the cell growth after 7 days, batch sort in BM2, cytokines + 7.5 ug/ml Fc-CD40-L (#10) against the reference TSN + EL4-B5 (#9) (% higher than reference) was found to be 6.

On to LZ-CD40-L EctoD (ligand), for which the B cell growth after 7 days, batch sort in BM1, cytokines + CD40-L construct 7.5 ug/ml, against the reference EL4-B5 + TSN (% of reference) amounted to 68; the DoE parameter estimate for plasmablast proliferation (cell number after 7 days, 50 cells per well, feeder cell and TSN replacement) is 139.

The values are drawn from US20260201327A1.
